Read-outs that look alike come from different tables or passages of the source.
Key:
[1] = target: T1, human FcRIIIA-F158 protein (MednaBio, E1036) (human, UniProt P08637 17-208); experiment: BLI
T1 construct: Bought; also called FcγRIIIA(F)
In short: (§1)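 On an Octet Red96 System, anti-penta-HIS biosensors loaded with commercial human Fc receptor proteins were dipped into test IgG diluted 1:3 over 8 points from 300 nM. Fcγ receptor runs used pH 7.2 and FcRn runs used pH 6. Global fitting of these biolayer interferometry data gave the values for Kd, kon and koff, using a 1:1 binding model.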

[2] = target: T2, human FcRIIIB protein (MednaBio, E1037) (human, UniProt O75015 17-200); experiment: BLI
T2 construct: Bought; also called FcγRIIIB; FcgRIIIB
T2 sequence (O75015 17-200 limits assumed): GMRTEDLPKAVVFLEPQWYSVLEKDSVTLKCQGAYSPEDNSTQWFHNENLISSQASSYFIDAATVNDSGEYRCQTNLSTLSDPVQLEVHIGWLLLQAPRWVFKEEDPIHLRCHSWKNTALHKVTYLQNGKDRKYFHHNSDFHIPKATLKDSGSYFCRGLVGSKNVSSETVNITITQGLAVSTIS
In short: as §1

[3] = target: T3, human FcRIIB/C protein (MednaBio, E1034) (human, UniProt P31994 43-217, limits assumed); experiment: BLI
T3 construct: Bought as FcRIIB/C; also called FcγRIIB; CD32B
T3 sequence (looked up): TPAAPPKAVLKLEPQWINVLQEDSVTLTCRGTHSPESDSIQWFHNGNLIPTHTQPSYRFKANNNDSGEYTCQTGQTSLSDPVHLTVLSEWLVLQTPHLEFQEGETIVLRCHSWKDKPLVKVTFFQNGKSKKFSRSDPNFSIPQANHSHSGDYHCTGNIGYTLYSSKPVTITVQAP
In short: as §1

[4] = target: T4, human FcRIIA protein (MednaBio, E1033) (human, UniProt P12318 34-218, limits assumed); experiment: BLI
T4 construct: Bought; also called FcγRIIA
T4 sequence (looked up): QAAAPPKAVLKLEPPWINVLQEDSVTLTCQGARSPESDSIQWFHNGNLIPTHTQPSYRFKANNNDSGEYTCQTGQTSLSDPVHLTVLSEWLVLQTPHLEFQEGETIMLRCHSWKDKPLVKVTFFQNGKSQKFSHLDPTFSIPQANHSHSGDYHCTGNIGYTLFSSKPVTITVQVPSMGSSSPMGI
In short: as §1

[5] = target: T5, human FcRI protein (MednaBio, E1031) (human, UniProt P12314 16-288, limits assumed); experiment: BLI
T5 construct: Bought; loaded on anti-penta-HIS biosensors; also called FcγRI
T5 sequence (P12314 16-288 limits assumed): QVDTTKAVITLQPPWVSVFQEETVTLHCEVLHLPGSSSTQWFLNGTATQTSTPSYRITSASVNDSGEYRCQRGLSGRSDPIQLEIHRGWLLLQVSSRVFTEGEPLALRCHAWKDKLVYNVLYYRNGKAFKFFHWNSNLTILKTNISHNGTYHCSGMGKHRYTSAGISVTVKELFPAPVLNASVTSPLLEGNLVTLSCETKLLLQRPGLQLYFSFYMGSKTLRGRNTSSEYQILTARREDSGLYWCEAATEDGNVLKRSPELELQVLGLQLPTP
In short: as §1

[6] = target: T6, human FcRn protein (MednaBio, E1032) (human, UniProt P55899 24-297; P61769 21-119); experiment: BLI
T6 construct: Bought; assays at pH 6
T6 sequence (P55899 24-297 limits assumed, form in doubt, chain 1 of 2): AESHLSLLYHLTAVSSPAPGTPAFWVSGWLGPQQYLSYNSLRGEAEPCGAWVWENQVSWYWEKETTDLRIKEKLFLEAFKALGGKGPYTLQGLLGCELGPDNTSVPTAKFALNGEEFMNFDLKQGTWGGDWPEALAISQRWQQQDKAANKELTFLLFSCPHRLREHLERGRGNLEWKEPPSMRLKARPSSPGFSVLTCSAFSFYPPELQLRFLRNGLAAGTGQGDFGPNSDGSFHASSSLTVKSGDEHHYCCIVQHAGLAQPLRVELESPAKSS
T6 sequence (P61769 21-119 limits assumed, form in doubt, chain 2 of 2): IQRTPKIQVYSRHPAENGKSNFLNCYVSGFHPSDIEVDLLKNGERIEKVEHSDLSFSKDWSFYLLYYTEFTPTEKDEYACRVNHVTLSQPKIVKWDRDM
In short: as §1

[7] = target: T7, human FcRIIIA-V158 protein (MednaBio, E1035) (human, UniProt P08637 17-208); experiment: BLI
T7 construct: Bought; also called FcγRIIIA(V); FcgRIIIA(V)
T7 sequence (P08637 17-208 F176V): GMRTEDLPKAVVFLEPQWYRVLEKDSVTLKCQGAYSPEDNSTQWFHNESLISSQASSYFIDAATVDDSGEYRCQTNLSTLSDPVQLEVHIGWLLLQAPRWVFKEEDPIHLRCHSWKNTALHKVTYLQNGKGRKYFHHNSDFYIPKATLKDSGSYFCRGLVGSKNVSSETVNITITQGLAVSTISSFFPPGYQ
In short: as §1

[8] = target: T8, human FcγRIIA(R131) expressed on CHO cells (human, UniProt P12318 34-317); experiment: FACS, CHO cells expressing FcγRIIA(R131)
T8 construct: whole, on cells
T8 sequence (looked up): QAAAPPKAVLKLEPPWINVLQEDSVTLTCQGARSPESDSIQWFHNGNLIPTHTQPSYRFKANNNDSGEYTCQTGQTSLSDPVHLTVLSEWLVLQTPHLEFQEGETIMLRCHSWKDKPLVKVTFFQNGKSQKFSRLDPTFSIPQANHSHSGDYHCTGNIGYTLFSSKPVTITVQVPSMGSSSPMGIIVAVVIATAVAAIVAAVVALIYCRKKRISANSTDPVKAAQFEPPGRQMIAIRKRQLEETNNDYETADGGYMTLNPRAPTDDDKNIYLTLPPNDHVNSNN
Experimental: FIGS. 1A-1W are charts showing binding activity of various IgG variants as indicated to different types of Fcγ receptors expressed on CHO-K1 cells at the various concentrations as indicated. The concentrations of each IgG variant, from left to right, are 0 μg/ml, 0.3 μg/ml, 1 μg/ml, 3 μg/ml, and 10 μg/ml in FIGS. 1A-1C, 1E-J, 1L-1M, 1P-1R, and 1T-1V. For FIGS. 1D, 1K, 10, 1S, and 1w the bars, from left to right, correspond to the following concentrations of IgG variant: 0.3 μg/ml, 1 μg/ml, 3 μg/ml, and 10 μg/ml.
For FACS analysis of the IgG mutants' binding to different FcγRs, FcγR overexpressing CHO cells were harvested using trypsin-EDTA and were suspended in cold staining buffer (3% BSA in PBS). Test IgG mutants, which were diluted in staining buffer, were added into the cells. The mixture was incubated 4° C. for 2 hours, and then washed twice with cold staining buffer and re-suspended in PE-labeled anti-human IgG followed by incubation at 4° C. for 2 hours. The mixture was washed twice with staining buffer and re-suspended in 2% PFA in PBS for FACS.

[9] = target: T1, human FcRIIIA-F158 protein (MednaBio, …); experiment: BLI; remark: listed apart in the source
In short: as §1

[10] = target: T2, human FcRIIIB protein (MednaBio, E1037); experiment: BLI; remark: listed apart in the source
In short: as §1

[11] = target: T3, human FcRIIB/C protein (MednaBio, E1034); experiment: BLI; remark: listed apart in the source
In short: as §1

[12] = target: T4, human FcRIIA protein (MednaBio, E1033); experiment: BLI; remark: listed apart in the source
In short: as §1

[13] = target: T5, human FcRI protein (MednaBio, E1031); experiment: BLI; remark: listed apart in the source
In short: as §1

[14] = target: T6, human FcRn protein (MednaBio, E1032); experiment: BLI; remark: listed apart in the source
In short: as §1

[15] = target: T7, human FcRIIIA-V158 protein (MednaBio, …); experiment: BLI; remark: listed apart in the source
In short: as §1

T1 sequence (P08637 17-208 limits assumed): as the sequence (P08637 17-208 F176V) above, with V160F counted along it

B1: anti-CD137 IgG1 with Fc variant G1mAA (antibody)
heavy: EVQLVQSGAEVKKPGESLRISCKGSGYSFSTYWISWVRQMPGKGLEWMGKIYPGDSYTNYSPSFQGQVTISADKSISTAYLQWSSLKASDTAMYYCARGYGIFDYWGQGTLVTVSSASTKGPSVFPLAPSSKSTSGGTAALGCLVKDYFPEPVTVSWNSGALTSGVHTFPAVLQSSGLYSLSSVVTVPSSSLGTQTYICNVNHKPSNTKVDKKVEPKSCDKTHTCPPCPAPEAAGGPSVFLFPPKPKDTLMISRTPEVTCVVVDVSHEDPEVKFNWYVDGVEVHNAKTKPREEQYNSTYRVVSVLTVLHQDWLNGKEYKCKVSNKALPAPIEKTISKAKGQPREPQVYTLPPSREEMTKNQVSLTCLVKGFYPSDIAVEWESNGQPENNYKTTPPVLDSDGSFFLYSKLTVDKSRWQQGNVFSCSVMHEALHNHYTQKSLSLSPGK
light: SYELTQPPSVSVSPGQTASITCSGDNIGDQYAHWYQQKPGQSPVLVIYQDKNRPSGIPERFSGSNSGNTATLTISGTQAMDEADYYCATYTGFGSLAVFGGGTKLTVLGQPKAAPSVTLFPPSSEELQANKATLVCLISDFYPGAVTVAWKADSSPVKAGVETTTPSKQSNNKYAASSYLSLTPEQWKSHRSYSCQVTHEGSTVEKTVAPTECS
notes: copies: 2 + 2
Kd [1]: 1500 nM | koff [1]: 0.175 s⁻¹ | kon [1]: 116000 M⁻¹ s⁻¹ | Kd [2]: 556 nM | koff [2]: 0.144 s⁻¹ | kon [2]: 258000 M⁻¹ s⁻¹ | Kd [3]: 656 nM | koff [3]: 0.156 s⁻¹ | kon [3]: 238000 M⁻¹ s⁻¹ | Kd [4]: 800 nM | koff [4]: 0.247 s⁻¹ | kon [4]: 310000 M⁻¹ s⁻¹ | Kd [5]: 235 nM | koff [5]: 0.0337 s⁻¹ | kon [5]: 144000 M⁻¹ s⁻¹ | Kd [6]: 18.8 nM | koff [6]: 0.015 s⁻¹ | kon [6]: 803000 M⁻¹ s⁻¹ | Kd [7]: 456 nM | koff [7]: 0.042 s⁻¹ | kon [7]: 92300 M⁻¹ s⁻¹ | binding result [8]: no binding (tested: 10 ug/ml)

B2: anti-CD137 IgG4 with Fc variant G4m30 (antibody)
heavy: EVQLVQSGAEVKKPGESLRISCKGSGYSFSTYWISWVRQMPGKGLEWMGKIYPGDSYTNYSPSFQGQVTISADKSISTAYLQWSSLKASDTAMYYCARGYGIFDYWGQGTLVTVSSASTKGPSVFPLAPCSRSTSESTAALGCLVKDYFPEPVTVSWNSGALTSGVHTFPAVLQSSGLYSLSSVVTVPSSSLGTKTYTCNVDHKPSNTKVDKRVESKYGPPCPPCPAPEFLPSVFLFPPKPKDTLMISRTPEVTCVVVDVSQEDPEVQFNWYVDGVEVHNAKTKPREEQFNSTYRVVSVLTVLHQDWLNGKEYKCKVSNKGLPSSIEKTISKAKGQPREPQVYTLPPSQEEMTKNQVSLTCLVKGFYPSDIAVEWESNGQPENNYKTTPPVLDSDGSFFLYSRLTVDKSRWQEGNVFSCSVMHEALHNHYTQKSLSLSLGK
light: SYELTQPPSVSVSPGQTASITCSGDNIGDQYAHWYQQKPGQSPVLVIYQDKNRPSGIPERFSGSNSGNTATLTISGTQAMDEADYYCATYTGFGSLAVFGGGTKLTVLGQPKAAPSVTLFPPSSEELQANKATLVCLISDFYPGAVTVAWKADSSPVKAGVETTTPSKQSNNKYAASSYLSLTPEQWKSHRSYSCQVTHEGSTVEKTVAPTECS
notes: also called G430; copies: 2 + 2
Kd [9]: 284 nM | koff [9]: 0.303 s⁻¹ | kon [9]: 1.06e+06 M⁻¹ s⁻¹ | Kd [10]: 216 nM | koff [10]: 0.297 s⁻¹ | kon [10]: 1.37e+06 M⁻¹ s⁻¹ | Kd [11]: 2220 nM | koff [11]: 0.118 s⁻¹ | kon [11]: 53600 M⁻¹ s⁻¹ | Kd [12]: 977 nM | koff [12]: 0.234 s⁻¹ | kon [12]: 240000 M⁻¹ s⁻¹ | Kd [13]: 528 nM | koff [13]: 0.193 s⁻¹ | kon [13]: 365000 M⁻¹ s⁻¹ | Kd [14]: 7.61 nM | koff [14]: 0.0133 s⁻¹ | kon [14]: 1.75e+06 M⁻¹ s⁻¹ | Kd [15]: 217 nM | koff [15]: 0.309 s⁻¹ | kon [15]: 1.42e+06 M⁻¹ s⁻¹ | binding result [8]: no binding (tested: 10 ug/ml)
